US20190038582A1 (published 2019)
Where two headings read alike, the source gives them in different places.

Legend:
[1] = target: T1, dephosphorylated Aurora A kinase (Aurora A^122-403) (human, UniProt O14965 122-403); experiment: ITC
T1 construct: also called AurA; deP Aurora A^122-403
T1 sequence: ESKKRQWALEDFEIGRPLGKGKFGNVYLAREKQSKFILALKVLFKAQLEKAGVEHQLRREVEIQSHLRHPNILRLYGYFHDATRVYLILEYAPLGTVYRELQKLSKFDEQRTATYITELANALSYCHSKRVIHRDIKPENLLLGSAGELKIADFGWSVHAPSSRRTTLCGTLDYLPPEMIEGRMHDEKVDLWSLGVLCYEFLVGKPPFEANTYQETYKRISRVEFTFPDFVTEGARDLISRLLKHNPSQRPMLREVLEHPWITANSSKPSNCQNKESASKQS
Description: Error bars in FIGS. 18D and 18F represent the standard error for the estimate of Kd and are a measure of the goodness of fit of the data. Error bars in FIG. 18C were calculated through jackknifing.
(§1) Titrations were carried out using Nano ITC isothermal titration calorimeter (TA Instruments) and analyzed via the NanoAnalyze software using the independent fit model. Injectant was added in 1 μl volume, every 180 s, with a constant stirring speed at 350 rpm and at 25° C.

[2] = target: T2, dephosphorylated Aurora A kinase (Aurora A^122-403) (UniProt O14965 122-403); experiment: ITC
T2 chain: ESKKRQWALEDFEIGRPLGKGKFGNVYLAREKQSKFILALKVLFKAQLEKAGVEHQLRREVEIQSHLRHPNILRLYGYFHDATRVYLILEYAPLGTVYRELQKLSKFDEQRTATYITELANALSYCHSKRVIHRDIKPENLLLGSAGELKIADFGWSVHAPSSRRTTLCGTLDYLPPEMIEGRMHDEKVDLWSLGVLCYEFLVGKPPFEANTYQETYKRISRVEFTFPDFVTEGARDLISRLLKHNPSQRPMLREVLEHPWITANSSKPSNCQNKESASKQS

TPX2 = target: T3, TPX2
T3 chain: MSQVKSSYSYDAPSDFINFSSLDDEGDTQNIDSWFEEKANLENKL

[3] = target: T2, dephosphorylated Aurora A kinase …; experiment: ITC
[4] = target: T1, dephosphorylated Aurora A kinase …; experiment: ITC; Aurora A pre-saturated with barasertib
Description: as §1

[5] = target: T2, dephosphorylated Aurora A kinase …; experiment: ITC
[6] = target: T4, Aurora A kinase in HEK293 cells (human, UniProt O14965 1-403); experiment: immunofluorescence co-localization in HEK293 cells
T4 construct: not on the cell surface; also called Aurora A kinase (endogenous, HEK293)
T4 sequence: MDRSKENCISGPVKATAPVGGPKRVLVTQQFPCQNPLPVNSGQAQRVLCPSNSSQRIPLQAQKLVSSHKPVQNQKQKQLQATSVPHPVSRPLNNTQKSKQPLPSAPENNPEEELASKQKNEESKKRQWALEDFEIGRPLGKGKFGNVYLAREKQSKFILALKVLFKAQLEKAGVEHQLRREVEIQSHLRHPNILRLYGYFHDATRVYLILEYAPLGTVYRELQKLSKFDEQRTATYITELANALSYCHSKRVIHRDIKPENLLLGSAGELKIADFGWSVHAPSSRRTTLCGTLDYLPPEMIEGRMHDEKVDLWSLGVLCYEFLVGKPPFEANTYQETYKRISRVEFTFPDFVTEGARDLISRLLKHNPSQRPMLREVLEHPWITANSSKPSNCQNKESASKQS

[7] = target: T1, dephosphorylated Aurora A kinase …; experiment: told with the kinase assay results (FIG. 9); method of the affinity not named there
[8] = target: T2, dephosphorylated Aurora A kinase …; experiment: ITC
[9] = target: T2, dephosphorylated Aurora A kinase …; experiment: ITC

B1: TPX2 (other)
chain: MSQVKSSYSYDAPSDFINFSSLDDEGDTQNIDSWFEEKANLENKL
notes: also called TPX2 polypeptide
- Kd [1]: ~5 µM
- Kd [2]: 5400 nM

B2: Aurora A T288V mutant (A^122-403 T288V) (protein)
chain: ESKKRQWALEDFEIGRPLGKGKFGNVYLAREKQSKFILALKVLFKAQLEKAGVEHQLRREVEIQSHLRHPNILRLYGYFHDATRVYLILEYAPLGTVYRELQKLSKFDEQRTATYITELANALSYCHSKRVIHRDIKPENLLLGSAGELKIADFGWSVHAPSSRRTVLCGTLDYLPPEMIEGRMHDEKVDLWSLGVLCYEFLVGKPPFEANTYQETYKRISRVEFTFPDFVTEGARDLISRLLKHNPSQRPMLREVLEHPWITANSSKPSNCQNKESASKQS
- kinase activity (phosphorylation of AP peptide) (TPX2): greatly increased its kinase activity

B3: phosphorylated Aurora A kinase (protein)
chain: ESKKRQWALEDFEIGRPLGKGKFGNVYLAREKQSKFILALKVLFKAQLEKAGVEHQLRREVEIQSHLRHPNILRLYGYFHDATRVYLILEYAPLGTVYRELQKLSKFDEQRTATYITELANALSYCHSKRVIHRDIKPENLLLGSAGELKIADFGWSVHAPSSRRTTLCGTLDYLPPEMIEGRMHDEKVDLWSLGVLCYEFLVGKPPFEANTYQETYKRISRVEFTFPDFVTEGARDLISRLLKHNPSQRPMLREVLEHPWITANSSKPSNCQNKESASKQS
- kinase activity (phosphorylation of AP peptide) (TPX2): only slightly increased kinase activity

B4: monobody Mb51 (AuroraA_51) (designed binder)
chain: GSVSSVPTKLEVVAATPTSLLISWDAKPMSYEPVYYYRITYGETGGNSPVQEFTVPGYYSTATISGLKPGVDYTITVYADSMSSYYYSPISINYRT
notes: FN3-scaffold monobody
- Kd [3]: 76.9 nM
- fold weakening of binding affinity (Aurora A pre-saturated with barasertib against Aurora A alone) [4]: 2.8 fold

B5: monobody Mb56 (AuroraA_56) (designed binder)
chain: GSVSSVPTKLEVVAATPTSLLISWDAMSDWYYWVDYYRITYGETGGNSPVQEFTVPGSYSTATISGLKPGVDYTITVYASDDVWGDYSPISINYRT
notes: FN3-scaffold monobody; also called Mb3
- Kd [3]: 163 nM
- binding result [1]: binds

B6: sGFP-Mb6 fusion polypeptide (designed binder)
chain: GSVSSVPTKLEVVAATPTSLLISWDAFGHQYEPVYYYRITYGETGGNSPVQEFTVPGYYSTATISGLKPGVDYTITVYAWYVDGSYSSPISINYRT
notes: also called neutral sGFP-Mb6; not shown: supercharged GFP (sGFP)
- Kd [5]: 27.4 nM
- binding result [6]: binds

B7: monobody Mb2 (aka Mb6) (AuroraA_2) (designed binder)
chain: GSVSSVPTKLEVVAATPTSLLISWDAFGHQYEPVYYYRITYGETGGNSPVQEFTVPGYYSTATISGLKPGVDYTITVYAWYVDGSYSSPISINYRT
notes: also called neutral monobody
- binding result [7]: binds
- Kd [8]: 8.7 nM

B8: monobody Mb60 (AuroraA_60) (designed binder)
chain: GSVSSVPTKLEVVAATPTSLLISWDAPAVTVVHYVITYGETGGNSPVQEFTVPGSKSTATISGLKPGVDYTITVYAIDFYWGSYSPISINYRT
notes: FN3-scaffold monobody; also called Mb2 (alternative name herein)
- binding result [1]: binds
- Kd [2]: 1000 nM

B9: sGFP-Mb60 fusion polypeptide (designed binder)
chain: GSVSSVPTKLEVVAATPTSLLISWDAPAVTVVHYVITYGETGGNSPVQEFTVPGSKSTATISGLKPGVDYTITVYAIDFYWGSYSPISINYRT
notes: also called sGFP-Mb2 (aka Mb60); not shown: supercharged GFP (sGFP)
- binding result [1]: binds
- Kd [9]: 2500 nM
- binding result [6]: binds

B10: monobody Mb54 (AuroraA_54) (designed binder)
chain: GSVSSVPTKLEVVAATPTSLLISWDAQTYQMYDYVSYYRITYGETGGNSPVQEFTVPGYYSTATISGLKPGVDYTITVYAEGYYSSYSPISINYRT
notes: FN3-scaffold monobody; also called Mb1
- binding result [1]: binds
- Kd [2]: 175 nM

B11: sGFP-Mb54 fusion polypeptide (designed binder)
chain: GSVSSVPTKLEVVAATPTSLLISWDAQTYQMYDYVSYYRITYGETGGNSPVQEFTVPGYYSTATISGLKPGVDYTITVYAEGYYSSYSPISINYRT
notes: also called sGFP-Mb54 (aka Mb1); sGFP-Mb1; not shown: supercharged GFP (sGFP)
- binding result [1]: binds
- Kd [5]: 121 nM
- binding result [6]: binds

B12: monobody Mb44 (AuroraA_44) (designed binder)
chain: GSVSSVPTKLEVVAATPTSLLISWDAPAVTVDFYVITYGETGGYSYPWQEFEVPGSKSTATISGLKPGVDYTITVYADYGQYFYSPISINYRT
notes: FN3-scaffold monobody; also called M44
- Kd [3]: 3280 nM
- fold weakening of binding affinity (Aurora A pre-saturated with barasertib against Aurora A alone) [4]: 5 fold
